Reference: patent US20180355059A1 (PHARMAEXPLORER, published 2018)
Substitutions are numbered along the chain they refer to.

B1: 74C10A8, chimeric anti-PCSK9 mAb purified from hybridoma (antibody, V domains shown)
VH: QVQLQESGPGLVKPSETLSLTCSVSGGSINTYYWSWIRQPPGKGLEWIGYIYYSGSTNYNPSLKSRVTISVDTSKNQFSLKLTSVTAADTAVYYCARERFTMVRGVMMDYYYYGMDVWGQGTTVTVSS
VL: DIQLTQSPSFLSASVGDRVTITCRASQGISSYLAWYQQKPGKAPKLLIYAASTLQSGVPSRFSGSGSGTEFTLTISSLQPEDFATYYCQQLNSYPRTFGQGTKVEIK
notes: From Harbour H2L2 mice: human variable regions, rat constant regions
B2: 76A1B11, chimeric anti-PCSK9 mAb purified from hybridoma (antibody, V domains shown)
VH: QVQLVESGGGVVQPGRSLRLSCAATGFTFSIYGMHWVRQAPGKGLEWVAVIWYDGSNKYYADSVKGRFIISRDNSKNTLYLQMNSLRVEDTAVYYCVSDYFGSGNSYYYYGMDVWGQGTTVTVSS
VL: DIQMTQSPSSLSASVGDRVTITCRASQVISNYLAWYQQKPGKVPKLLIYTASTLQSGVPSRFSGSGSGADFTLTISSLQPEDVATYYCQKYNSAPYTFGQGTKLEIK
notes: as for B1
B3: 139G1C5, chimeric anti-PCSK9 mAb purified from hybridoma (antibody, V domains shown)
VH: QVQLQESGPGLVKPSGTLSLTCAVSGGSISRNNWWSWVRQPPGKGLEWIGEIYHSGSTNYNPSLKSRVTISVDKSKNQFSLKLSSVTAADTAVYYCARDLLGIGLDYWGQGTLVTVSS
VL: EFVLTQSPATLSLSPGERAILSCRASQSFSSYIAWYQQKPGQAPRLLIYDASNRATGIPARFSGSGSGTDFTLTISSLEPEDFAVYYCQQHSNWMYTFGQGTKLEIK
notes: as for B1
B4: 152G2F7, chimeric anti-PCSK9 mAb purified from hybridoma (antibody, V domains shown)
VH: EVQLVESGGGLVQPGGSLRLSCAASEFTFGGYWMTWVRQAPGKGLEWVANIKQDGSEKYYVDSVKGRFTISRDNAKNSLYLHMNSLRAEDTAVYYCARDRTTMIRGVSLYYYYYGMDVWGQGTAVTVSS
VL: B3 VL with F2I, I20T, F29V, I33L, H91R, M95P, Y96L, Q100G, L104V
notes: as for B1

Target: T1, recombinant human PCSK9 protein, His-tagged (Immunogen A, hPCSK9-His) (human, UniProt Q8NBP7 31-692, limits assumed, biotin-labelled in the ELISA and blocking assays (Biotin labeling kit))
T1 construct: also called human PCSK9-His; recombinant hPCSK9-His; not shown: His tag
Experiment: ELISA, biotin-hPCSK9-His on streptavidin plate; antibody 0.67 nM

Binder	OD450 nm [OD450 nm]
B1	2.89
B2	2.66
B3	2.87
B4	2.42

Target: T1, recombinant human PCSK9 protein, …
Experiment: ELISA, biotin-hPCSK9-His on streptavidin plate; antibody 6.67 nM
Experimental: (§1) The next day, the plates were washed twice with wash buffer [0.01% (v/v) Tween 20], then blocked with blocking buffer [0.01% (v/v) 0.1% BSA (w/w) Tween 20] at room temperature for 2 hours. […] Unbound PCSK9 proteins were removed by washing the plate three times with wash buffer [0.01% (v/v) Tween 20]. […] The plates were washed twice with wash buffer [0.01% (v/v) Tween 20], and 200 uL HRP-conjugated secondary antibody (Sigma) was added to each well and incubated for 2 hours at 37° C. After the plates were washed three times with wash buffer, 100 ul TMB substrate were added to each well and incubated for 30 minutes at room temperature. 100 ul stop solution (0.1N HCl) were added to each well to stop the reaction.

Binder	OD450 nm [OD450 nm]
B1	2.99
B2	2.85
B3	2.94
B4	2.91

Target: T2, recombinant cyno monkey PCSK9 protein (cyno monkey, UniProt A8T666 31-692 (rhesus entry), limits assumed, biotin-labelled in the ELISA (Biotin labeling kit))
T2 construct: also called cyno PCSK9; Cyno Monkey PCSK9-His
Experiment: ELISA, biotin-cyno PCSK9 on streptavidin plate; antibody 0.67 nM
Experimental: as §1

T2 sequence (A8T666 31-692 limits assumed): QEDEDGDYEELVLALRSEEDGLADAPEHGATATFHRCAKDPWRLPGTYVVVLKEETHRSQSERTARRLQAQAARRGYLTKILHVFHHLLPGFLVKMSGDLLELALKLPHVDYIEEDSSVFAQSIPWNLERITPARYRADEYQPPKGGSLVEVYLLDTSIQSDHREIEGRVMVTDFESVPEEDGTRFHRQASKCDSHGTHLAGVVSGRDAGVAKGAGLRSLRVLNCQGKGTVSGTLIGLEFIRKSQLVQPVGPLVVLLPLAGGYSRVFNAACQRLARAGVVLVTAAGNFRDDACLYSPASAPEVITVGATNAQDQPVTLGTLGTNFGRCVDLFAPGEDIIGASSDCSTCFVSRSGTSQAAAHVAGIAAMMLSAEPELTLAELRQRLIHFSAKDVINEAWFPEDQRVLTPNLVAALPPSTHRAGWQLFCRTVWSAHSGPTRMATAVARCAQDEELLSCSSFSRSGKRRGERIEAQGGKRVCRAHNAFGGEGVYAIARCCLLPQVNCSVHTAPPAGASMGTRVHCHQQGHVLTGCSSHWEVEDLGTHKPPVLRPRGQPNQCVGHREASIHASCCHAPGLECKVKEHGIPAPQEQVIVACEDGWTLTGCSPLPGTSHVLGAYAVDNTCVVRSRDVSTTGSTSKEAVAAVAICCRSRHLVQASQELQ

Binder	OD450 nm [OD450 nm]
B1	2.53
B2	2.5
B3	2.67
B4	1.25

Target: T2, recombinant cyno monkey PCSK9 protein
Experiment: ELISA, biotin-cyno PCSK9 on streptavidin plate; antibody 6.67 nM
Experimental: as §1

Binder	OD450 nm [OD450 nm]
B1	2.86
B2	2.82
B3	2.88
B4	2.67

Target: T1, recombinant human PCSK9 protein, …
Experiment: ELISA, biotin-hPCSK9-His on streptavidin plate; antibody 0.067 nM
Experimental: as §1

Binder	OD450 nm [OD450 nm]
B2	0.86
B3	1.55
B4	0.6

Target: T1, recombinant human PCSK9 protein, …
Experiment: ELISA, biotin-hPCSK9-His on streptavidin plate; antibody 66.67 nM
Experimental: as §1

Binder	OD450 nm [OD450 nm]
B1	2.98
B2	2.85
B3	2.93
B4	2.91

Target: T2, recombinant cyno monkey PCSK9 protein
Experiment: ELISA, biotin-cyno PCSK9 on streptavidin plate; antibody 0.067 nM
Experimental: as §1

Binder	OD450 nm [OD450 nm]
B1	0.76
B2	0.81
B3	1
B4	0.35

Target: T2, recombinant cyno monkey PCSK9 protein
Experiment: ELISA, biotin-cyno PCSK9 on streptavidin plate; antibody 66.67 nM
Experimental: as §1

Binder	OD450 nm [OD450 nm]
B1	2.89
B2	2.88
B3	2.9
B4	2.93

Target: T1, recombinant human PCSK9 protein, …
Experiment: ELISA, biotin-hPCSK9-His on streptavidin plate; antibody 0.0067 nM
Experimental: as §1

Binder	OD450 nm [OD450 nm]
B1	0.3
B2	0.27
B3	0.36
B4	0.25

Target: T2, recombinant cyno monkey PCSK9 protein
Experiment: ELISA, biotin-cyno PCSK9 on streptavidin plate; antibody 0.0067 nM
Experimental: as §1

Binder	OD450 nm [OD450 nm]
B1	0.27
B2	0.26
B3	0.27
B4	0.2

Target: T1, recombinant human PCSK9 protein, …
Experiment: ELISA, biotin-hPCSK9-His on streptavidin plate; antibody 0.00067 nM
Experimental: as §1

Binder	OD450 nm [OD450 nm]
B1	0.17
B2	0.21
B3	0.21
B4	0.21

Target: T2, recombinant cyno monkey PCSK9 protein
Experiment: ELISA, biotin-cyno PCSK9 on streptavidin plate; antibody 0.00067 nM
Experimental: as §1

Binder	OD450 nm [OD450 nm]
B1	0.34
B2	0.23
B3	0.26
B4	0.21

Target: T1, recombinant human PCSK9 protein, …
Experiment: ELISA, biotin-hPCSK9-His on streptavidin plate; antibody 0.000067 nM
Experimental: as §1

Binder	OD450 nm [OD450 nm]
B1	0.19
B2	0.2
B3	0.19
B4	0.18

Target: T2, recombinant cyno monkey PCSK9 protein
Experiment: ELISA, biotin-cyno PCSK9 on streptavidin plate; antibody 0.000067 nM
Experimental: as §1

Binder	OD450 nm [OD450 nm]
B1	0.18
B2	0.21
B3	0.23
B4	0.27

Target: T1, recombinant human PCSK9 protein, …
Experiment: ELISA, biotin-hPCSK9-His on streptavidin plate; antibody 0 nM (blank)
Experimental: as §1

Binder	OD450 nm [OD450 nm]
B1	0.22
B2	0.18
B3	0.22
B4	0.17

Target: T2, recombinant cyno monkey PCSK9 protein
Experiment: ELISA, biotin-cyno PCSK9 on streptavidin plate; antibody 0 nM (blank)
Experimental: as §1

Binder	OD450 nm [OD450 nm]
B1	0.21
B2	0.19
B3	0.2
B4	0.33

Target: T1, recombinant human PCSK9 protein, …
Experiment: blocking ELISA, biotin-hPCSK9-His on coated LDLR ECD-His; antibody 8 nM
Experimental: (§2) Purified LDLR^ECD-His was diluted with PBS to a final concentration of 1.0 ug/ml, and 100 uL of diluted LDLR^ECD-His were added to each well of 96-well plate that was then sealed with plastic film and incubated at 4° C. overnight. The plate was washed twice with wash buffer [PBS+0.01% (v/v) Tween 20] and incubated with blocking buffer [PBS+0.01% (v/v) BSA+1% Tween20 (w/w)] at room temperature for 2 hours. […] The plate was washed three times with wash buffer [0.01% (v/v) Tween 20]. 100 uL HRP-conjugated streptavidin (Sigma) were then added to each well and incubated at 37° C. for 1 hour. The plate was then washed three times with wash buffer, and 100 uL TMB substrate were added to each well. After 15 minutes of incubation at room temperature, the reaction was stopped by adding 50 uL stop solution (0.1N HCl).

Binder	OD450 nm (PCSK9 bound to LDLR) [OD450 nm]
B1	0.78
B2	0.7
B3	0.61
B4	0.94

Target: T1, recombinant human PCSK9 protein, …
Experiment: blocking ELISA, biotin-hPCSK9-His on coated LDLR ECD-His; antibody 40 nM
Experimental: as §2

Binder	OD450 nm (PCSK9 bound to LDLR) [OD450 nm]
B1	0.68
B2	0.59
B3	0.67
B4	0.74

Target: T1, recombinant human PCSK9 protein, …
Experiment: blocking ELISA, biotin-hPCSK9-His on coated LDLR ECD-His; antibody 1.6 nM
Experimental: as §2

Binder	OD450 nm (PCSK9 bound to LDLR) [OD450 nm]
B1	0.97
B2	0.96
B3	0.89
B4	1.2

Target: T1, recombinant human PCSK9 protein, …
Experiment: blocking ELISA, biotin-hPCSK9-His on coated LDLR ECD-His; antibody 200 nM
Experimental: as §2

Binder	OD450 nm (PCSK9 bound to LDLR) [OD450 nm]
B1	0.55
B2	0.55
B3	0.63
B4	0.7

Target: T1, recombinant human PCSK9 protein, …
Experiment: blocking ELISA, biotin-hPCSK9-His on coated LDLR ECD-His; antibody 0.01 nM
Experimental: as §2

Binder	OD450 nm (PCSK9 bound to LDLR) [OD450 nm]
B1	1.34
B2	1.29
B3	1.06
B4	1.26

Target: T1, recombinant human PCSK9 protein, …
Experiment: blocking ELISA, biotin-hPCSK9-His on coated LDLR ECD-His; antibody 0.06 nM
Experimental: as §2

Binder	OD450 nm (PCSK9 bound to LDLR) [OD450 nm]
B1	1.3
B2	1.18
B3	1.13
B4	1.2

Target: T1, recombinant human PCSK9 protein, …
Experiment: blocking ELISA, biotin-hPCSK9-His on coated LDLR ECD-His; antibody 0.32 nM
Experimental: as §2

Binder	OD450 nm (PCSK9 bound to LDLR) [OD450 nm]
B1	1.2
B2	1.19
B3	1.11
B4	1.17
